In patent publication US20060094663A1 (VALORISATION RECHERCHE SOCIETE EN COMMANDITE, published 2006):
Where no end group is shown, it is not given here. [ ]: non-standard residue; d: D form. dOrn = NCCC[C@@H](N)C(=O)O

Experiments:
Assay in all cases: cell-based or functional assay
[1] = target: T1, IL-1R/IL-1RacP receptor on porcine cells and vessels (porcine (piglet), UniProt A0A5G2QSI4 18-572)
[2] = target: T2, IL-1R/IL-1RacP receptor on human cells (human, UniProt P14778 18-569; Q9NPH3 21-570)
T2 sequence (looked up) 1: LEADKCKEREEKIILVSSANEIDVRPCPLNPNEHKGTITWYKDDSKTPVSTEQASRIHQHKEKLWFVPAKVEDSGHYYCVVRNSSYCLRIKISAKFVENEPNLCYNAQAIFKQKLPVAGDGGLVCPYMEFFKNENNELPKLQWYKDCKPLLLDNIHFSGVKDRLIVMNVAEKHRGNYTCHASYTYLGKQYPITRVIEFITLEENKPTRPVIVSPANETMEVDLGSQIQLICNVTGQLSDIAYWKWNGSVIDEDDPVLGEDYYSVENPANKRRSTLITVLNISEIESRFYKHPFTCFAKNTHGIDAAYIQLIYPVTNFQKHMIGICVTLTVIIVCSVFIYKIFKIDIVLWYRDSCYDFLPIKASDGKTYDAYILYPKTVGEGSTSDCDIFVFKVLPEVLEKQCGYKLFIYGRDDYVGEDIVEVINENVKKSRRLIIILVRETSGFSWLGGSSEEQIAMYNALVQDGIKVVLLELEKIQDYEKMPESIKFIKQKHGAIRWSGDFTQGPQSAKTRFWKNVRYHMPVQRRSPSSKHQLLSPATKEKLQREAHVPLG
T2 sequence (looked up) 2: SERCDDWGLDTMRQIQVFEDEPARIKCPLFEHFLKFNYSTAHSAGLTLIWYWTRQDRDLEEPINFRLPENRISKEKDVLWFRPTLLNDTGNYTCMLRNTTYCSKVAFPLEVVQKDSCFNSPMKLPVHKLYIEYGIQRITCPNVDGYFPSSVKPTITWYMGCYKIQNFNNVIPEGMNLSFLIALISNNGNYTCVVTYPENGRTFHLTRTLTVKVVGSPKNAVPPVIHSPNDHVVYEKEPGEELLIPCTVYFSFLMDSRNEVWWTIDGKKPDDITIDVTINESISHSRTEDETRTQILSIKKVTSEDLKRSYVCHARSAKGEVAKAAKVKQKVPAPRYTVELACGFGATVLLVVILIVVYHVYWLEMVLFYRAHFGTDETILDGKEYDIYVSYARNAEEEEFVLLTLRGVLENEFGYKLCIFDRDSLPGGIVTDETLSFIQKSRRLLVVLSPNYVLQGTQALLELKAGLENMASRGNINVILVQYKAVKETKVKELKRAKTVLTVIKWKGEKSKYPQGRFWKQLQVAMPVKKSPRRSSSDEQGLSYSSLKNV

[3] = target: T2, IL-1R/IL-1RacP receptor on human cells; remark: listed apart in the source
[4] = target: T1, IL-1R/IL-1RacP receptor on porcine …; remark: listed apart in the source
[5] = target: IL-1R/IL-1RacP receptor (cells or tissue whose species is not stated)
[6] = target: T2, IL-1R/IL-1RacP receptor on human cells; remark: listed apart in the source

T1 sequence (A0A5G2QSI4 entry or part of it): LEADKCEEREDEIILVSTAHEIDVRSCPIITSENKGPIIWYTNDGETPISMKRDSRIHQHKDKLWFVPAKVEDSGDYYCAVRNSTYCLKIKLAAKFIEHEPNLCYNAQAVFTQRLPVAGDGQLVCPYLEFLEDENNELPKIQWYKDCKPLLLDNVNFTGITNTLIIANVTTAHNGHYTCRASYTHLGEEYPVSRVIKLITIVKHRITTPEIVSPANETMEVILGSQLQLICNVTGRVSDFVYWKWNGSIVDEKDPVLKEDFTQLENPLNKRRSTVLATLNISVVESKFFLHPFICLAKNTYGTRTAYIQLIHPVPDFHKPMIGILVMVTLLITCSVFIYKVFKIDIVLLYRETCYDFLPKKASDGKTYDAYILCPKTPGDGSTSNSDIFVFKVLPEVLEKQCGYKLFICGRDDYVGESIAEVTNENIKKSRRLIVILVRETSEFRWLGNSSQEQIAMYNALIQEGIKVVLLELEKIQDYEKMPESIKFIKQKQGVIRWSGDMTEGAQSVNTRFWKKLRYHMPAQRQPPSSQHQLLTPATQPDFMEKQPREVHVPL

B1: API-101.113 (peptide)
peptide: [dR][dY][dT][dP][dE][dL]
Emax (%), IL-1β-induced PGE2 synthesis in endothelial cells (porcine) [1]: 80%
IC50, IL-1β-induced PGE2 synthesis in endothelial cells (porcine) [1]: 0.0074 nM

B2: API-101.116 (peptide)
peptide: [dR][dW][dT][dP][dE][dL][dA]
Emax (%), IL-1β-induced proliferation in TF-1 cells (human) [2]: 75%
IC50, IL-1β-induced proliferation in TF-1 cells (human) [2]: 0.5 nM
Emax (%), IL-1β-induced PGE2 synthesis in endothelial cells (porcine) [1]: 45%
IC50, IL-1β-induced PGE2 synthesis in endothelial cells (porcine) [1]: 0.013 nM

B3: API-101.117 (peptide)
peptide: [dR][dY][dT][dP][dD][dL][dA]
Emax (%), IL-1β-induced PGE2 synthesis in endothelial cells (porcine) [1]: 100%
IC50, IL-1β-induced PGE2 synthesis in endothelial cells (porcine) [1]: 0.01 nM

B4: API-101.10 (peptide)
peptide: [dR][dY][dT][dV][dE][dL][dA]
IC50, IL-1-induced PGE2 synthesis, WI-38 cells [3]: 0.2 nM
percent of IL-1β-induced proliferation of WI-38 human lung fibroblasts abolished [3]: 100%
IC50, IL-1-induced PGE2 synthesis, endothelial cells [4]: 1.2 nM
IC50, IL-1-induced vasodilation (ex vivo vasomotricity, protocol of Example 1) [4]: 10.8 nM
fold potency against API-101, IL-1-induced vasodilation (ex vivo) [4]: 100 fold

B5: API-101.107 (peptide)
peptide: [dR][dY][dT][dP][dE][dL][dA]
IC50, IL-1-induced PGE2 synthesis, human WI-38 cells [3]: 0.1 pM
IC50 (FIG. 15; cell type not given) [5]: 0.0012 nM

B6: API-101.127 (peptide)
peptide: [dR][dF][dV][dP][dE][dL][dA]
Emax (%), IL-1β-induced TF-1 proliferation [6]: < 30%

B7: API-101.133 (peptide)
peptide: [dK][dY][dT][dP][dE][dL]
Emax (%), IL-1β-induced TF-1 proliferation [6]: < 10%

B8: API-101.126 (peptide)
peptide: [dOrn][dY][dT][dP][dE][dL]
Emax (%), IL-1β-induced TF-1 proliferation [6]: 0%

B9: API-101 (peptide)
peptide: [dA][dP][dR][dY][dT][dV][dE][dL][dA]
IC50, IL-1-induced PGE2 synthesis, WI-38 cells [3]: 790 nM
IC50, effect of IL-1β (10 ng/ml) on proliferation of A549 carcinoma cells, 3H-thymidine [3]: 1000 nM
percent of IL-1β-induced proliferation of WI-38 human lung fibroblasts abolished [3]: 65%
IC50, IL-1-induced PGE2 synthesis, endothelial cells [4]: 220 nM
IC50, IL-1-induced PGE2 synthesis, microvascular endothelial cells [4]: 1000 nM
IC50, IL-1β-induced vasodilation of piglet pial vessels (ex vivo) [4]: 182 nM

B10: API-101.115 (peptide)
peptide: [dOrn][dY][dT][dP][dE][dL][dA]
Emax (%), IL-1β-induced proliferation in TF-1 cells (human) [2]: 100%
IC50, IL-1β-induced proliferation in TF-1 cells (human) [2]: ~0.001 nM

B11: API-101.114 (peptide)
peptide: [dK][dY][dT][dP][dE][dL][dA]
Emax (%), IL-1β-induced PGE2 synthesis in endothelial cells (porcine) [1]: 50%
IC50, IL-1β-induced PGE2 synthesis in endothelial cells (porcine) [1]: 0.002 nM

B12: API-101.103 (peptide)
peptide: [dR][dY][dT][dV][dQ][dL][dA]
IC50, IL-1-induced PGE2 synthesis, human WI-38 cells [3]: 0.05 pM

B13: API-101.11 (peptide)
peptide: [dY][dT][dV][dE][dL][dA]
percent of IL-1β-induced proliferation of WI-38 human lung fibroblasts abolished [3]: 100%

B14: API-101.128 (peptide)
peptide: [dR][dW][dT][dP][dE][dL]
Emax (%), IL-1β-induced TF-1 proliferation [6]: 100%
IC50, IL-1β-induced TF-1 proliferation [6]: 3 nM

B15: API-101.129 (peptide)
peptide: [dR][dY][dT][dP][dE][dV]
Emax (%), IL-1β-induced TF-1 proliferation [6]: 50%
IC50, IL-1β-induced TF-1 proliferation [6]: 400 nM
